From paper doi:10.1101/2020.06.28.176677 (bioRxiv, 2020)

Legend:
[1] = molecular target: the molecule itself; assay: native gel or EMSA
[2] = molecular target: the molecule itself; assay: SEC

B1: glutaryl-CoA dehydrogenase (GCDH), mouse liver mitochondria (enzyme, mouse (endogenous in liver mitochondria), UniProt Q60759 45-438, looked up)
chain: RPVFDWKDPLILEEQLTADEKLIRDTFRNYCQERLMSRILLANRNEVFHRDIVYEMGELGVLGPTIKGYGCAGVSSVAYGLLTRELERVDSGYRSMMSVQSSLVMHPIYTYGSEEQRQKYLPGLAKGELLGCFGLTEPNHGSDPGGMETRARHNPSNQSYTLSGTKTWITNSPVADLFIVWARCEDNCIRGFILEKGMRGLSAPRIEGKFSLRASATGMIIMDSVEVPEENVLPNVSSLAGPFGCLNTARYGITWGVLGAAEFCLHTARQYALDRIQFGVPLARNQLVQKKLADMLTEITLGLHACLQLGRLKDQDKATPEMVSMLKRNNCGKALDIARQARDILGGNGISDEYHVIRHAMNLEAVNTYEGTHDIHALILGRAITGIQAFTVGK
stoichiometry N [1]: 4

B2: recombinant human GCDH, unmodified (hGCDH-6xHIS) (enzyme, UniProt Q92947 45-438, looked up)
chain: RPEFDWQDPLVLEEQLTTDEILIRDTFRTYCQERLMPRILLANRNEVFHREIISEMGELGVLGPTIKGYGCAGVSSVAYGLLARELERVDSGYRSAMSVQSSLVMHPIYAYGSEEQRQKYLPQLAKGELLGCFGLTEPNSGSDPSSMETRAHYNSSNKSYTLNGTKTWITNSPMADLFVVWARCEDGCIRGFLLEKGMRGLSAPRIQGKFSLRASATGMIIMDGVEVPEENVLPGASSLGGPFGCLNNARYGIAWGVLGASEFCLHTARQYALDRMQFGVPLARNQLIQKKLADMLTEITLGLHACLQLGRLKDQDKAAPEMVSLLKRNNCGKALDIARQARDMLGGNGISDEYHVIRHAMNLEAVNTYEGTHDIHALILGRAITGIQAFTASK
stoichiometry N [2]: 4

B3: chemically succinylated recombinant human GCDH (succinyl-GCDH) (enzyme, UniProt Q92947 45-438, looked up)
chain: RPEFDWQDPLVLEEQLTTDEILIRDTFRTYCQERLMPRILLANRNEVFHREIISEMGELGVLGPTIKGYGCAGVSSVAYGLLARELERVDSGYRSAMSVQSSLVMHPIYAYGSEEQRQKYLPQLAKGELLGCFGLTEPNSGSDPSSMETRAHYNSSNKSYTLNGTKTWITNSPMADLFVVWARCEDGCIRGFLLEKGMRGLSAPRIQGKFSLRASATGMIIMDGVEVPEENVLPGASSLGGPFGCLNNARYGIAWGVLGASEFCLHTARQYALDRMQFGVPLARNQLIQKKLADMLTEITLGLHACLQLGRLKDQDKAAPEMVSLLKRNNCGKALDIARQARDMLGGNGISDEYHVIRHAMNLEAVNTYEGTHDIHALILGRAITGIQAFTASK
modifications: succinyl-lysine, 11 sites found by LC-MS/MS (sites shown in Supporting Figure 2G, not given)
stoichiometry N [2]: 4
